The values below come from patent publication US20230322930A1, “USE OF AN ANTI-PD-1 ANTIBODY AND A CYTOTOXIC ANTICANCER DRUG IN TREATMENT OF NON-SMALL CELL LUNG CANCER” (SHANGHAI JUNSHI BIOSCIENCES CO., LTD., priority 2020, published 2023).

The subject of the series is EGFR+NSCLC patients. Kind of series: Phase II clinical trial, safety study (treatment-related adverse effects). To be noted: with pemetrexed + carboplatin; n = 40.

With “toripalimab: anti-PD-1 humanized IgG4 mAb with light and heavy chains of SEQ ID NOs: 9 and 10; described in WO 2014206107”, the “Elevated glutamyltransferase (TRAE), incidence of grade 3-5” value was determined as 0%; the “Elevated glutamyltransferase (TRAE), total incidence” value is reported as “(10.0) %”; the “Influenza and other diseases (TRAE), incidence of grade 3-5” value is 0%; the “Influenza and other diseases (TRAE), total incidence” value is recorded as “(10.0) %”. In addition, the “Leukopenia (TRAE), incidence of grade 3-5” value is recorded as “(22.5) %”; the “Urinary tract infection (TRAE), incidence of grade 3-5” value was 0%; the “Urinary tract infection (TRAE), total incidence” value was “(12.5) %”.
